Results published in US20240383984A1 (Genentech, published 2024).
Where two headings read alike, the source gives them in different places.

T1: human FcRH3 (BIACORE analyte) (human, UniProt Q96P31 18-573, limits assumed)
T1 construct: also called huFcRH3
T1 sequence (looked up): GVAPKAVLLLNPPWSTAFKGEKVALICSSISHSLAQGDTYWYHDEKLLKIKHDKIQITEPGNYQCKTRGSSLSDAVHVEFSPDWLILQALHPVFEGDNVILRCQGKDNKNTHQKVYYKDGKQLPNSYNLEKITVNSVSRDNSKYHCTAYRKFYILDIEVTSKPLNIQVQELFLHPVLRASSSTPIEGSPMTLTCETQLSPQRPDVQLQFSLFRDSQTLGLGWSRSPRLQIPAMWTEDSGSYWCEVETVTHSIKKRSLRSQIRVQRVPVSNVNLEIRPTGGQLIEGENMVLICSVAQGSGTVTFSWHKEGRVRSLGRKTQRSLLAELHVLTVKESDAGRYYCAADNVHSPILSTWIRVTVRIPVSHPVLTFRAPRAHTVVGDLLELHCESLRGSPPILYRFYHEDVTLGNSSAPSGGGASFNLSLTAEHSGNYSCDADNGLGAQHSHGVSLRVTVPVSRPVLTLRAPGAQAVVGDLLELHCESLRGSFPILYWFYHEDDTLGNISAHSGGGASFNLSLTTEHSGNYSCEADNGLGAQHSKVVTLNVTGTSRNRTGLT

T2: human FcRH4 (full-length, on SVT2 cells) (human, UniProt Q96PJ5 20-515)
T2 construct: whole, on cells; also called SVT2-FcRH4
T2 sequence (looked up): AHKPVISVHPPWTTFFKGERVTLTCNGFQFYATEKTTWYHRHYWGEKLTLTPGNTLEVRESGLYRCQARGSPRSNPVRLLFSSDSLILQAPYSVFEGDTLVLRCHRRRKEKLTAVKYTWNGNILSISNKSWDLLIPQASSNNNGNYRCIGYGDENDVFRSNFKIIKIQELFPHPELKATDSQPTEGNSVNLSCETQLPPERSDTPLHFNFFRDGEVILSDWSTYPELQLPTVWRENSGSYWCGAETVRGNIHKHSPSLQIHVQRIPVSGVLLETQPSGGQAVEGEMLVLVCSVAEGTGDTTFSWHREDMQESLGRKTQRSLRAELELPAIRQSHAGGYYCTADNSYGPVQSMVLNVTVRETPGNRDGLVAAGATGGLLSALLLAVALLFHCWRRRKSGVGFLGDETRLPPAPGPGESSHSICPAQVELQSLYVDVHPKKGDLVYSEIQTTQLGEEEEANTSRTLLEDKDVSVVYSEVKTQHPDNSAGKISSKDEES

T3: cynomolgus FcRH5 protein fragment (soluble) (cynomolgus monkey)
T3 construct: whole entry named; also called Cyno FcRH5 (BIACORE analyte)
T3 chain: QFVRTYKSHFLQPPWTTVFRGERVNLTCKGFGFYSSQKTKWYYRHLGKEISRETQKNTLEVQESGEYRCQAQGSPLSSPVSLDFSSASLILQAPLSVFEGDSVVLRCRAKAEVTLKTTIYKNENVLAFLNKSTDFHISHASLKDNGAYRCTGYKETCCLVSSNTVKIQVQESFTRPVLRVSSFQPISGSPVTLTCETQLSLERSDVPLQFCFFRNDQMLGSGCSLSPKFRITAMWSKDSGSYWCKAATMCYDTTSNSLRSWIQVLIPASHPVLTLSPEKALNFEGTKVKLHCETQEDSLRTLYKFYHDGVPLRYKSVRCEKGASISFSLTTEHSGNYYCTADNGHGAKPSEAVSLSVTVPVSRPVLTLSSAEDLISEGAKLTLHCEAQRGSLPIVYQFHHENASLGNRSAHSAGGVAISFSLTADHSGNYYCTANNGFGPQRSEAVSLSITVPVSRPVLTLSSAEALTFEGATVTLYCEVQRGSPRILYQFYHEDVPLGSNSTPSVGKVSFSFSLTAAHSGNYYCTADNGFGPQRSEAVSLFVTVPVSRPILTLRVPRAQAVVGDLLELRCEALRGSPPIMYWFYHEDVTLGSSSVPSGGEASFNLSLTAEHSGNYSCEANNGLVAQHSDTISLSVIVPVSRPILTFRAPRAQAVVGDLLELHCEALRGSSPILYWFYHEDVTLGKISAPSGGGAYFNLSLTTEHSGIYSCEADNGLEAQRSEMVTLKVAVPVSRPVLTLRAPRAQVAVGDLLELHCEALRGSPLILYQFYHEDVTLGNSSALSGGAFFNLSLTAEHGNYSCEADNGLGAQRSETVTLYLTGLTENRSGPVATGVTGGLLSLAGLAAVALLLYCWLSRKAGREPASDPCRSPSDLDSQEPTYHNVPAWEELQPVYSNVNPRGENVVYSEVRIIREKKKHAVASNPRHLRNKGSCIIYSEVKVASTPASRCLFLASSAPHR


How the values were obtained:
[1] = target: T1, human FcRH3 (BIACORE analyte); experiment: SPR (BIACORE), TDB captured as ligand, FcRH3 as analyte, 25 °C, 1:1 binding model
[2] = target: T2, human FcRH4 (full-length, on SVT2 cells); experiment: flow cytometry on SVT2-FcRH4 cells, PE-labelled secondary
Method: Human FcRH5, cyno FcRH5, human FcRH1, FcRH2, FcRH3, and FcRH4 transfected mouse SVT2 cells were used to test binding and cross-reactivity of FcRH5 TDBs. The method was carried out as follows. Cultured SVT2 cells were lifted using non-enzyme cell dissociation buffer (Sigma, #C5914). 1×10⁵ cells were suspended in 100 μL and incubated with FcRH5 TDBs at 3 μg/ml. […] Cells were washed twice with FACS buffer before flow cytometry analysis was carried out on a FACSCalibur.

[3] = target: T1, human FcRH3 (BIACORE analyte); experiment: SPR (BIACORE), TDB captured as ligand, FcRH3 as analyte, 25 °C, 1:1 binding model; remark: listed apart in the source
[4] = target: T3, cynomolgus FcRH5 protein fragment …; experiment: SPR (BIACORE), TDB captured as ligand, Cyno FcRH5 as analyte, 25 °C, 1:1 binding model

Row | koff [1] | kon [1] | binding result [2] | Kd [3] | koff [3] | kon [3] | Kd [4] | koff [4] | kon [4] | Binder
1 | 0.00833 s⁻¹ | 109000 M⁻¹ s⁻¹ |  |  |  |  |  |  |  | hu1G7.v1.4/38E4.v1 TDB (bispecific antibody, V domains shown, knob-into-hole TDB; also called 1G7.v1.4 TDB; 1G7.v1.4 (TDB format)) VH 1: EVQLVESGPGLVKPSETLSLTCTVSGFSLTRFGVHWVRQPPGKGLEWLGVIWRGGSTDYNAAFMSRLTISKDNSKNQVSLKLSSVTAADTAVYYCSNHYYGSSDYALDNWGQGTLVTVSS VL 1: DIQMTQSPSSLSASVGDRVTITCKASQDVRNLVVWFQQKPGKAPKLLIYSGSYRYSGVPSRFSGSGSGTDFTLTISSLQPEDFATYYCQQHYSPPYTFGQGTKVEIK VH 2: EVQLVQSGAEVKKPGASVKVSCKASGFTFTSYYIHWVRQAPGQGLEWIGWIYPENDNTKYNEKFKDRVTITADTSTSTAYLELSSLRSEDTAVYYCARDGYSRYYFDYWGQGTLVTVSS VL 2: DIVMTQSPDSLAVSLGERATINCKSSQSLLNSRTRKNYLAWYQQKPGQSPKLLIYWTSTRKSGVPDRFSGSGSGTDFTLTISSLQAEDVAVYYCKQSFILRTFGQGTKVEIK
2 |  |  | no binding | 92.4 nM | 0.00741 s⁻¹ | 80200 M⁻¹ s⁻¹ | 6.76 nM | 0.000847 s⁻¹ | 125000 M⁻¹ s⁻¹ | 1G7.v85/38E4.v1 TDB (bispecific antibody, V domains shown, knob-into-hole TDB; also called 1G7.v85 TDB; 1G7.v85 (TDB format)) VH 1: EVQLVESGPGLVKPSETLSLTCTVSGFSLTRFGVHWVRQPPGKGLEWLGVIWRGGSTDYNAAFVSRLTISKDNSKNQVSLKLSSVTAADTAVYYCSNHYYGSSDYALDNWGQGTLVTVSS VL 1: DIQMTQSPSSLSASVGDRVTITCKASQDVRNLVVWFQQKPGKAPKLLIYSGSYRYSGVPSRFSGSGSGTDFTLTISSLQPEDFATYYCQQHYSPPYTFGQGTKVEIK VH 2: EVQLVQSGAEVKKPGASVKVSCKASGFTFTSYYIHWVRQAPGQGLEWIGWIYPENDNTKYNEKFKDRVTITADTSTSTAYLELSSLRSEDTAVYYCARDGYSRYYFDYWGQGTLVTVSS VL 2: DIVMTQSPDSLAVSLGERATINCKSSQSLLNSRTRKNYLAWYQQKPGQSPKLLIYWTSTRKSGVPDRFSGSGSGTDFTLTISSLQAEDVAVYYCKQSFILRTFGQGTKVEIK
